Results: patent US7709240B2, “AMP deaminase originating streptomyces and utilization thereof” (Amano Enzyme Inc., priority 2004, dated 2010)

Legend:
[1] = Relation between reaction temperature and activity of purified enzyme; assay type: biochemical; details: reaction temperature 75° C.; activity at 65° C. = 100%
Experimental: (§1) By using the decrease of OD265 at the time of reaction as an index, the enzyme activity was measured. To 1.5 ml of solution obtained by mixing 0.017M 5′ AMP-2Na and 1/15M phosphate buffer solution (pH 5.6) at the ratio of 1:2, 0.5 ml of sample solution was added so as to obtain a reaction solution, which was reacted at 37° C. for 15 minutes. Then, 2% perchloric acid solution was added so as to stop the reaction and 100 μl of the solution was taken out. Water was added to the solution so that the total amount was 5 ml. Then, OD265 was measured. The value similarly measured at reaction time of 0 minute was defined as a blank. Under the above-mentioned conditions, a case where an absorbance difference is reduced by 0.001 during 60 minutes was defined as one unit.
The relation between the reaction temperature and activity of the obtained purified enzyme was examined. […] As is apparent from the graph of FIG. 7 (a), high activity is observed in the wide range from 40° C. to 70° C. Furthermore, even in the case where the reaction temperature is 75° C., about 50% activity is found. Thus, it is shown that the enzyme acts favorably under the wide range of temperatures.

[2] = Relation between pH and activity of purified enzyme; assay type: biochemical
Experimental: as §1
Next, the relation between pH and activity of the obtained purified enzyme was examined. […] In the wide range of pH from about 4.5 to about 8.5, relatively high activity is observed. In the range of pH from about 5.0 to about 8.0, 70% or more of the reaction property is observed. Furthermore, it is shown that even in the case where pH is 9.0, about 40% of reactivity is obtained.

B1: AMP deaminase derived from Streptomyces murinus: thermostable AMP deaminase enzyme produced by Streptomyces murinus IFO14802; amino acid sequence SEQ ID NO: 1 (protein, listed as Streptomyces murinus)
chain: APPPRQATAAEARTDAYLRSVKDRPAALRAFFRQLPKGGDLHNHLSGAVNTDYLIELAAEDGLCIDATMTAVPSPCGPGTRPAADARTDRAFHDAIVRAWSMQDFPPDENGHDHFFDTFGKFGEVTWRHRGKLLAQVADTVVANNQSYLETMVTPASDGAKQLADQVGWDADLTALHRKLAAGGKLDKLVADARKEADDGDAEFRATEHCGTAKARPACGLTVRWISQASRGSSPVRVFTQLDLGMRLAEADSRFVAVNLVQPEDWDSSLENYSLQMRMVGYLRTVYPKAHVTLHAGELWPGLVKPEALKFHIAEAVDIAHTQRVGHGVDLVHEDNWQRTARTMAARQIAVEVPFSSNAQILGVKGAEHPFTTYRRYGVPVVLATDDPGVSRIDISHEYQYAAATYGLGYPELKDLARASLQYAFLPGASLWQGNPTAQGYHPVAACRAERPGQPVHSAACRRLLDGSARARLEWRQEAAFAAFERAHARG
With B1 the relative activity [1] was “about 50%”, the “optimum pH” value ([2]; McIlvaine buffer solution) was “around 5.6” and the “relative activity (reactivity)” value ([2]; pH 9.0, activity at pH 5.6 = 100%) was “about 40%”. For the same molecule, the “relative activity (reaction property)” value ([2]; pH from about 5.0 to about 8.0, activity at pH 5.6 = 100%) was no less than 70%.
